# Assay results published in patent US20170291948A1 (published 2017).
# Biological target: human NRP1 protein (human, UniProt O14786 22-644)
# Assay: ELISA
# human NRP1 protein, sequence (O14786 other isoform, or with tags, fused parts or gaps): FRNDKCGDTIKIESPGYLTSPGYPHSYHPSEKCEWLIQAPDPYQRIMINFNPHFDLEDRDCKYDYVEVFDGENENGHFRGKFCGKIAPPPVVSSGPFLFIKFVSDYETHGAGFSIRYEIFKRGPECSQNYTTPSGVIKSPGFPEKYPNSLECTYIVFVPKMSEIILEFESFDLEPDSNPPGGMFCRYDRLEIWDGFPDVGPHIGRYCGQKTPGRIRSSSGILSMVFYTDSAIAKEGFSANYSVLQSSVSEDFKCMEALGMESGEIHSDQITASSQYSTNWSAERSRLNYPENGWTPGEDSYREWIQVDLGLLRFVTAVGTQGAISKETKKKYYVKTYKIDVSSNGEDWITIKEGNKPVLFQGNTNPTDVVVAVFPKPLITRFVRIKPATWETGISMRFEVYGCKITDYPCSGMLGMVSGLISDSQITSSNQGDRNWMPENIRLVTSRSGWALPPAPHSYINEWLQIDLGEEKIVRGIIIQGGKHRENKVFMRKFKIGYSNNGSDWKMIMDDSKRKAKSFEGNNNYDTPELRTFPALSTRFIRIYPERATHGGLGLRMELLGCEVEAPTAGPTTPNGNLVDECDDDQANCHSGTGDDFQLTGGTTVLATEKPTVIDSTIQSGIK
row,Kd [nM],Binder
1,1110,"1A03 anti-NRP1 IgG (antibody, V domains shown) VH: EVQLLESGGGLVQPGGSLRLSCAASGFTFSSYYMSWVRQAPGKGLEWVSAISPGSSNKYYADSVQGRFTISRDNSKNTLYLQMNSLRAEDTAVYYCARRKKSFDYWGQGTLVTVSS VL: QSVLTQPPSASGTPGQRVTISCSGPSSNIGNNDVSWYQQLPGTAPKLLIYSDNNRPSGVPDRFSGSKSGTSASLAISGLRSEDEADYYCGAWVASLSAYVFGGGTKLTVL"
2,426,"IRCR-101 (3H10) anti-NRP1 IgG (antibody, V domains shown) VH: EVQLLESGGGLVQPGGSLRLSCAASGFTFSSYYMSWVRQAPGKGLEWVSAISPGSSNKYYADSVKGRFTISRDNSKNTLYLQMNSLRAEDTAVYYCARRKYMFDYWGQGTLVTVSS VL: QSVLTQPPSASGTPGQRVTISCTGSSSNIGNNDVYWYQQLPGTAPKLLIYSDSNRPSGVPDRFSGSKSGTSASLAISGLRSEDEADYYCASWDSSLSGYVFGGGTKLTVL"
